OD450 data for 6 molecules are collected here from patent US20140072581A1 (Zymeworks, published 2014).

In experiment [1] the target is T1, CD19 on RAJI (CD19+) cells (UniProt P15391 20-556, limits assumed).
T1 construct: whole, on cells
T1 sequence (looked up): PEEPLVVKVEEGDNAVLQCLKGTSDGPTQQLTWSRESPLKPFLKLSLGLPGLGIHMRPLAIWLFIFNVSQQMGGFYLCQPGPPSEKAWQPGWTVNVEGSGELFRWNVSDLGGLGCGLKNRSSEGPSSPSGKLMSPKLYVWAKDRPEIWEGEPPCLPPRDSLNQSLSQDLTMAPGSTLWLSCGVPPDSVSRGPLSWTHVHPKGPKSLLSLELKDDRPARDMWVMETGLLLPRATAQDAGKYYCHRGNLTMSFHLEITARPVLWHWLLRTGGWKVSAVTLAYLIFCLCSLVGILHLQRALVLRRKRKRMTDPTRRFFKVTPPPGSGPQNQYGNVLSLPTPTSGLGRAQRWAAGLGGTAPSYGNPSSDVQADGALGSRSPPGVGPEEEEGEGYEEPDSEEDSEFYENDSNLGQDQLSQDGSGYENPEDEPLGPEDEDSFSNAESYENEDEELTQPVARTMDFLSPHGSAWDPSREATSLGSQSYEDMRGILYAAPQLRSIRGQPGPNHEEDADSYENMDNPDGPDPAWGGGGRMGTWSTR
Nature of the experiment: live cell ELISA on RAJI (CD19+) cells; OD450 grade at 1/60 dilution. The method, then: (§1) These variants were tested for their ability to bind to cells expressing the target antigen using a live cell ELISA binding assay using filter plates and wash steps carried out using a vacuum manifold (method developed by Anne Marcil at the National Research Council, Montreal, Canada). The method was carried out as follows. Cells were maintained in exponential growth phase and then washed, counted and distributed at 10E5 cells per well in 50% medium, 50% blocking buffer. Dilutions of variants in blocking buffer were added to the cells and incubated for 1 hour at 4° C. After collection and four washes in medium, an HRP-conjugated goat anti-human IgG was added to cells which were incubated for 1 hour at 4° C. After collection and four washes in medium and 3 washes in PBS, TMB substrate was added to cells which were incubated for 25 minutes at room temperature. The reaction was stopped by addition of H₂SO4 and OD read at 450 nm. The ELISA results are depicted in Tables 17 and 18. A, B, and C refer to the ratio of Chain A to Chain B used in expression of the variant: Ratio A=Chain A/Chain B=1:1 A/B=50%/50%; Ratio B=Chain A/Chain B=2:1 A/B=66%/34%; Ratio C=Chain A/Chain B=1:2 A/B=34%/66%.
(In general: An ELISA detects its analyte on a solid surface through an enzyme-linked reagent.)

For experiment [2], the target named is T2, CD3 on HBP-ALL (CD3+) cells (UniProt P07766 23-207).
T2 construct: whole, on cells; CD3 is a multi-chain complex
The experiment is described as follows: live cell ELISA on HBP-ALL (CD3+) cells; OD450 grade at 1/60 dilution. The procedure:
as §1

B1: scMAB_LCI_CD3xCD19_GS15-GS24_GS15-GS24, variant 1841 (bispecific antibody, human IgG1, kappa)
chain 1: QVQLVQSGGGVVQPGRSLRLSCKASGYTFTRYTMHWVRQAPGKGLEWIGYINPSRGYTNYNQKVKDRFTISRDNSKNTAFLQMDSLRPEDTGVYFCARYYDDHYCLDYWGQGTPVTVSSGGGGSGGGGSGGGGSDIQMTQSPSSLSASVGDRVTITCSASSSVSYMNWYQQTPGKAPKRWIYDTSKLASGVPSRFSGSGSGTDYTFTISSLQPEDIATYYCQQWSSNPFTFGQGTKLQITRTVAAPSVFIFPPSDEQLKSGTASVVCLLNNFYPREAKVQWKVDNALQSGNSQESVTEQDSKDSTYSLSSTLTLSKADYEKHKVYACEVTHQGLSSPVTKSFNRGECGGGGSGGGGSGGGGSGGGGSGGGGSTKGPSVFPLAPSSKSTSGGTAALGCLVKDYFPEPVTVSWNSGALTSGVHTFPAVLQSSGLYSLSSVVTVPSSSLGTQTYICNVNHKPSNTKVDKKVEPKSCDKTHTCPPCPAPELLGGPSVFLFPPKPKDTLMISRTPEVTCVVVDVSHEDPEVKFNWYVDGVEVHNAKTKPREEQYNSTYRVVSVLTVLHQDWLNGKEYKCKVSNKALPAPIEKTISKAKGQPREPQVYVYPPSRDELTKNQVSLTCLVKGFYPSDIAVEWESNGQPENNYKTTPPVLDSDGSFALVSKLTVDKSRWQQGNVFSCSVMHEALHNHYTQKSLSLSPGK
chain 2: not shown
notes: Heterodimeric IgG1 Fc; the CH3 mutations are already in the entries; also called 1841 B
Take B1: the values for the OD450 in experiment [1] and in experiment [2] were greater than 2 od and 1 to 2 od, respectively.

B2: scMAB_LCI_CD3xCD19_GS15-GS24_GS15-GS24_SS, variant 1843 (bispecific antibody, human IgG1, kappa)
chain 1: QVQLVQSGGGVVQPGRSLRLSCKASGYTFTRYTMHWVRQAPGKCLEWIGYINPSRGYTNYNQKVKDRFTISRDNSKNTAFLQMDSLRPEDTGVYFCARYYDDHYCLDYWGQGTPVTVSSGGGGSGGGGSGGGGSDIQMTQSPSSLSASVGDRVTITCSASSSVSYMNWYQQTPGKAPKRWIYDTSKLASGVPSRFSGSGSGTDYTFTISSLQPEDIATYYCQQWSSNPFTFGCGTKLQITRTVAAPSVFIFPPSDEQLKSGTASVVCLLNNFYPREAKVQWKVDNALQSGNSQESVTEQDSKDSTYSLSSTLTLSKADYEKHKVYACEVTHQGLSSPVTKSFNRGECGGGGSGGGGSGGGGSGGGGSGGGGSTKGPSVFPLAPSSKSTSGGTAALGCLVKDYFPEPVTVSWNSGALTSGVHTFPAVLQSSGLYSLSSVVTVPSSSLGTQTYICNVNHKPSNTKVDKKVEPKSCDKTHTCPPCPAPELLGGPSVFLFPPKPKDTLMISRTPEVTCVVVDVSHEDPEVKFNWYVDGVEVHNAKTKPREEQYNSTYRVVSVLTVLHQDWLNGKEYKCKVSNKALPAPIEKTISKAKGQPREPQVYVYPPSRDELTKNQVSLTCLVKGFYPSDIAVEWESNGQPENNYKTTPPVLDSDGSFALVSKLTVDKSRWQQGNVFSCSVMHEALHNHYTQKSLSLSPGK
chain 2: not shown
notes: Heterodimeric IgG1 Fc; the CH3 mutations are already in the entries; also called 1843 B
For B2, the OD450 is greater than 2 od in experiment [1] and 1 to 2 od in experiment [2].

B3: scMAB_LCI_CD3xCD19_GS20-GS24_GS20-GS24, variant 1840 (bispecific antibody)
chain 1: QVQLVQSGGGVVQPGRSLRLSCKASGYTFTRYTMHWVRQAPGKGLEWIGYINPSRGYTNYNQKVKDRFTISRDNSKNTAFLQMDSLRPEDTGVYFCARYYDDHYCLDYWGQGTPVTVSSGGGGSGGGGSGGGGSGGGGSDIQMTQSPSSLSASVGDRVTITCSASSSVSYMNWYQQTPGKAPKRWIYDTSKLASGVPSRFSGSGSGTDYTFTISSLQPEDIATYYCQQWSSNPFTFGQGTKLQITRTVAAPSVFIFPPSDEQLKSGTASVVCLLNNFYPREAKVQWKVDNALQSGNSQESVTEQDSKDSTYSLSSTLTLSKADYEKHKVYACEVTHQGLSSPVTKSFNRGECGGGGSGGGGSGGGGSGGGGSGGGGSTKGPSVFPLAPSSKSTSGGTAALGCLVKDYFPEPVTVSWNSGALTSGVHTFPAVLQSSGLYSLSSVVTVPSSSLGTQTYICNVNHKPSNTKVDKKVEPKSCDKTHTCPPCPAPELLGGPSVFLFPPKPKDTLMISRTPEVTCVVVDVSHEDPEVKFNWYVDGVEVHNAKTKPREEQYNSTYRVVSVLTVLHQDWLNGKEYKCKVSNKALPAPIEKTISKAKGQPREPQVYVYPPSRDELTKNQVSLTCLVKGFYPSDIAVEWESNGQPENNYKTTPPVLDSDGSFALVSKLTVDKSRWQQGNVFSCSVMHEALHNHYTQKSLSLSPGK
chain 2: not shown
notes: also called 1840 A
On to B3, for which the figures for the OD450 in experiment [1] and in experiment [2] were greater than 2 od and 1 to 2 od, respectively.

B4: scMAB_LCI_CD3xCD19_GS20-GS24_GS20-GS24_SS, variant 1842 (bispecific antibody, human IgG1, kappa)
chain 1: QVQLVQSGGGVVQPGRSLRLSCKASGYTFTRYTMHWVRQAPGKCLEWIGYINPSRGYTNYNQKVKDRFTISRDNSKNTAFLQMDSLRPEDTGVYFCARYYDDHYCLDYWGQGTPVTVSSGGGGSGGGGSGGGGSGGGGSDIQMTQSPSSLSASVGDRVTITCSASSSVSYMNWYQQTPGKAPKRWIYDTSKLASGVPSRFSGSGSGTDYTFTISSLQPEDIATYYCQQWSSNPFTFGCGTKLQITRTVAAPSVFIFPPSDEQLKSGTASVVCLLNNFYPREAKVQWKVDNALQSGNSQESVTEQDSKDSTYSLSSTLTLSKADYEKHKVYACEVTHQGLSSPVTKSFNRGECGGGGSGGGGSGGGGSGGGGSGGGGSTKGPSVFPLAPSSKSTSGGTAALGCLVKDYFPEPVTVSWNSGALTSGVHTFPAVLQSSGLYSLSSVVTVPSSSLGTQTYICNVNHKPSNTKVDKKVEPKSCDKTHTCPPCPAPELLGGPSVFLFPPKPKDTLMISRTPEVTCVVVDVSHEDPEVKFNWYVDGVEVHNAKTKPREEQYNSTYRVVSVLTVLHQDWLNGKEYKCKVSNKALPAPIEKTISKAKGQPREPQVYVYPPSRDELTKNQVSLTCLVKGFYPSDIAVEWESNGQPENNYKTTPPVLDSDGSFALVSKLTVDKSRWQQGNVFSCSVMHEALHNHYTQKSLSLSPGK
chain 2: not shown
notes: Heterodimeric IgG1 Fc; the CH3 mutations are already in the entries; also called 1842 B
On to B4, for which the OD450 in experiment [1] is greater than 2 od; in experiment [2], 1 to 2 od.

B5: scMAB_LL_CD3xCD19_HH41_GSE34, variant 1846 (bispecific antibody, human IgG1, kappa)
chain 1: DIQMTQSPSSLSASVGDRVTITCSASSSVSYMNWYQQTPGKAPKRWIYDTSKLASGVPSRFSGSGSGTDYTFTISSLQPEDIATYYCQQWSSNPFTFGQGTKLQITRTVAAPSVFIFPPSDEQLKSGTASVVCLLNNFYPREAKVQWKVDNALQSGNSQESVTEQDSKDSTYSLSSTLTLSKADYEKHKVYACEVTHQGLSSPVTKSFNRGECGGSGGGSGSSADDAKKDAAKKDDAKKDDAKKDGGGSGGGSGQVQLVQSGGGVVQPGRSLRLSCKASGYTFTRYTMHWVRQAPGKGLEWIGYINPSRGYTNYNQKVKDRFTISRDNSKNTAFLQMDSLRPEDTGVYFCARYYDDHYCLDYWGQGTPVTVSSASTKGPSVFPLAPSSKSTSGGTAALGCLVKDYFPEPVTVSWNSGALTSGVHTFPAVLQSSGLYSLSSVVTVPSSSLGTQTYICNVNHKPSNTKVDKKVEPKSCDKTHTCPPCPAPELLGGPSVFLFPPKPKDTLMISRTPEVTCVVVDVSHEDPEVKFNWYVDGVEVHNAKTKPREEQYNSTYRVVSVLTVLHQDWLNGKEYKCKVSNKALPAPIEKTISKAKGQPREPQVYVYPPSRDELTKNQVSLTCLVKGFYPSDIAVEWESNGQPENNYKTTPPVLDSDGSFALVSKLTVDKSRWQQGNVFSCSVMHEALHNHYTQKSLSLSPGK
chain 2: not shown
notes: A, B and C are the chain A : chain B DNA ratios used in expression (1:1, 2:1, 1:2); also called 1846 A; 1846 B
For B5, the OD450 in experiment [1] was greater than 2 od; in experiment [2] it was 1 to 2 od.

B6: scMAB_LL_CD3xCD19_HH41_HH41, variant 1844 (bispecific antibody, human IgG1, kappa)
chain 1: DIQMTQSPSSLSASVGDRVTITCSASSSVSYMNWYQQTPGKAPKRWIYDTSKLASGVPSRFSGSGSGTDYTFTISSLQPEDIATYYCQQWSSNPFTFGQGTKLQITRTVAAPSVFIFPPSDEQLKSGTASVVCLLNNFYPREAKVQWKVDNALQSGNSQESVTEQDSKDSTYSLSSTLTLSKADYEKHKVYACEVTHQGLSSPVTKSFNRGECGGSGGGSGSSADDAKKDAAKKDDAKKDDAKKDGGGSGGGSGQVQLVQSGGGVVQPGRSLRLSCKASGYTFTRYTMHWVRQAPGKGLEWIGYINPSRGYTNYNQKVKDRFTISRDNSKNTAFLQMDSLRPEDTGVYFCARYYDDHYCLDYWGQGTPVTVSSASTKGPSVFPLAPSSKSTSGGTAALGCLVKDYFPEPVTVSWNSGALTSGVHTFPAVLQSSGLYSLSSVVTVPSSSLGTQTYICNVNHKPSNTKVDKKVEPKSCDKTHTCPPCPAPELLGGPSVFLFPPKPKDTLMISRTPEVTCVVVDVSHEDPEVKFNWYVDGVEVHNAKTKPREEQYNSTYRVVSVLTVLHQDWLNGKEYKCKVSNKALPAPIEKTISKAKGQPREPQVYVYPPSRDELTKNQVSLTCLVKGFYPSDIAVEWESNGQPENNYKTTPPVLDSDGSFALVSKLTVDKSRWQQGNVFSCSVMHEALHNHYTQKSLSLSPGK
chain 2: not shown
notes: B and C are the chain A : chain B DNA ratios used in expression (2:1 and 1:2); also called 1844 B; 1844 C
On to B6, for which the OD450 was greater than 2 od in experiment [1] and 1 to 2 od in experiment [2].
